Test results from patent US20250388702A1 (Dana-Farber, published 2025).

Key:
Human KIR3DL3 [1] = target: T1, Human KIR3DL3 (human, UniProt Q8N743 26-410); experiment: flow cytometry, KIR3DL3-transfected 300.19 cells
T1 construct: also called Killer cell immunoglobulin-like receptor 3DL3

KIR3DL1 = target: T2, KIR3DL1 (UniProt P43629 22-444, limits assumed); experiment: HEK293 cell microarray
T2 construct: whole, on cells
Method: (§1) Replicate microarray slides expressing a complete KIR family cDNA panel were fixed and blocked with buffer containing PBS/0.5% BSA and incubated for 1 hour at room temperature with individual KIR3DL3 mAb hybridoma supernatants at 1:5, 1:25 and 1:250 dilutions in PBS/0.1% BSA. Cell arrays were washed with PBS and incubated for 1 hour at room temperature in PBS/0.1% BSA containing AF647-conjugated goat anti-mouse IgG (H+L) (Life Technologies, A21235). Slides were washed with PBS, dried, and imaged for ZsGreen1 and AF647 fluorescence.
as §1, with “In Table 4, replicate” for “Replicate”, “the” for “a complete”, “panel (as in FIG. 1A, FIG. 2B, and FIG. 2C)” for “panel”

KIR3DS1 = target: T3, KIR3DS1 (UniProt Q14943 22-382, limits assumed); experiment: HEK293 cell microarray
T3 construct: whole, on cells
T3 sequence (Q14943 22-382 limits assumed): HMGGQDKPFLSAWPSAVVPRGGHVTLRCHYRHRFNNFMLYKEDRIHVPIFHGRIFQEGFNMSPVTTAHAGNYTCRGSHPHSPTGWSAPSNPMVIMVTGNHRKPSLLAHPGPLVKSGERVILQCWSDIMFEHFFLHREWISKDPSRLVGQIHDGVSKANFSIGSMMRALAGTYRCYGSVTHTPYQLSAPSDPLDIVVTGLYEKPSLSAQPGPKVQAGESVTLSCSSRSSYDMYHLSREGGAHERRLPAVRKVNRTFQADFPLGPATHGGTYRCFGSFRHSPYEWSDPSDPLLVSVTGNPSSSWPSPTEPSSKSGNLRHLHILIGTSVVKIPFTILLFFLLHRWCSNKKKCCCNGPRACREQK
Method: as §1
as §1, with “In Table 4, replicate” for “Replicate”, “the” for “a complete”, “panel (as in FIG. 1A, FIG. 2B, and FIG. 2C)” for “panel”

KIR2DL1 = target: T4, KIR2DL1 (UniProt P43626 22-348, limits assumed); experiment: HEK293 cell microarray
T4 construct: whole, on cells
T4 sequence (P43626 22-348 limits assumed): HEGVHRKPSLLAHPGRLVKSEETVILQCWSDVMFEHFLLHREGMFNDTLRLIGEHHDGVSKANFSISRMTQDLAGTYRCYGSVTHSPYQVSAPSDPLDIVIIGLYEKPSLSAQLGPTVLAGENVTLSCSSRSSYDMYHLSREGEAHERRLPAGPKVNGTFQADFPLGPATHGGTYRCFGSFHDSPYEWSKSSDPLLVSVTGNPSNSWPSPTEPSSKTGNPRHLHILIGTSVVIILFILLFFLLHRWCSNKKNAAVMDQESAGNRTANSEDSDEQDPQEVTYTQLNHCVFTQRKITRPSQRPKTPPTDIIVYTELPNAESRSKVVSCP
Method: as §1
as §1, with “In Table 4, replicate” for “Replicate”, “the” for “a complete”, “panel (as in FIG. 1A, FIG. 2B, and FIG. 2C)” for “panel”

KIR2DL5B = target: T5, KIR2DL5B (UniProt Q8NHK3 22-375, limits assumed); experiment: HEK293 cell microarray
T5 construct: whole, on cells
T5 sequence (Q8NHK3 22-375 limits assumed): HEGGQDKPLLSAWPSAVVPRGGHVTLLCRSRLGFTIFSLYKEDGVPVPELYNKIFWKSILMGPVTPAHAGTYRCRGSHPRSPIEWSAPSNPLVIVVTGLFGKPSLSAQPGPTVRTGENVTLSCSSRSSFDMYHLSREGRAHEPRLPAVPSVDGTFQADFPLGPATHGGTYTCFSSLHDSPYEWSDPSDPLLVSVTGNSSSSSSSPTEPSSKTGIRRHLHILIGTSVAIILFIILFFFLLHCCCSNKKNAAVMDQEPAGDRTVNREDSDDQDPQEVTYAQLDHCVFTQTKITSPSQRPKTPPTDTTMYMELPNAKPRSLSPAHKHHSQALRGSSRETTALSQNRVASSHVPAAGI
Method: as §1
as §1, with “In Table 4, replicate” for “Replicate”, “the” for “a complete”, “panel (as in FIG. 1A, FIG. 2B, and FIG. 2C)” for “panel”

KIR2DS2 = target: T6, KIR2DS2 (UniProt P43631 22-304, limits assumed); experiment: HEK293 cell microarray
T6 construct: whole, on cells
T6 sequence (P43631 22-304 limits assumed): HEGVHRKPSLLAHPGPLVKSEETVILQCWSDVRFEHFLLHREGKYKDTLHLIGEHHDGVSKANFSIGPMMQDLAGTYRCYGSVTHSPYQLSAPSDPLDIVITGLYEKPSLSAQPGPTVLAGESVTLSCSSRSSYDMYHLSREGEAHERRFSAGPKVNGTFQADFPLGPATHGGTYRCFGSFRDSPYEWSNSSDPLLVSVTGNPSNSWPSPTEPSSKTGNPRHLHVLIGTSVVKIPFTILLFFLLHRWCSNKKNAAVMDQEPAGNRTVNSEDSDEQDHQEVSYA
Method: as §1
as §1, with “In Table 4, replicate” for “Replicate”, “the” for “a complete”, “panel (as in FIG. 1A, FIG. 2B, and FIG. 2C)” for “panel”

KIR2DL2 = target: T7, KIR2DL2 (UniProt P43627 22-348, limits assumed); experiment: HEK293 cell microarray
T7 construct: whole, on cells
T7 sequence (P43627 22-348 limits assumed): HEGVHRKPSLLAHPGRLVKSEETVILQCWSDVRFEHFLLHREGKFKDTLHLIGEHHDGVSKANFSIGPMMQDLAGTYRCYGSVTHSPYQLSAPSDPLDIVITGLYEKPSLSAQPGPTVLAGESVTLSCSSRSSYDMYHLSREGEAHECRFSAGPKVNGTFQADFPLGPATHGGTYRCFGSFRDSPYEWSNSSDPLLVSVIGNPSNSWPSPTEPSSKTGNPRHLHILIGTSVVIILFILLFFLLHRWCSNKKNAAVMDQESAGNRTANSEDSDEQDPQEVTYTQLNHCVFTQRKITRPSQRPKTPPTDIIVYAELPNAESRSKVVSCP
Method: as §1
as §1, with “In Table 4, replicate” for “Replicate”, “the” for “a complete”, “panel (as in FIG. 1A, FIG. 2B, and FIG. 2C)” for “panel”

KIR2DL3 = target: T8, KIR2DL3 (UniProt P43628 22-341, limits assumed); experiment: HEK293 cell microarray
T8 construct: whole, on cells
T8 sequence (P43628 22-341 limits assumed): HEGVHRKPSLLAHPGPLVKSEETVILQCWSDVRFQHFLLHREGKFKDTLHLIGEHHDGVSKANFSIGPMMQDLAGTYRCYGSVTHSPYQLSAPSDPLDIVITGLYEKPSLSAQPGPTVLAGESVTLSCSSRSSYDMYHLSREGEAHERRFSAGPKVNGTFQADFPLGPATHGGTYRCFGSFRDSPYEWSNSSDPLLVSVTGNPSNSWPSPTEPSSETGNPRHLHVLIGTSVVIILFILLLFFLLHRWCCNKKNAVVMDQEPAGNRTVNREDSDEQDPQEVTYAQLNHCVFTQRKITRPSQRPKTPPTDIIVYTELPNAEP
Method: as §1
as §1, with “In Table 4, replicate” for “Replicate”, “the” for “a complete”, “panel (as in FIG. 1A, FIG. 2B, and FIG. 2C)” for “panel”

KIR3DL2 = target: T9, KIR3DL2 (UniProt P43630 22-455, limits assumed); experiment: HEK293 cell microarray
T9 construct: whole, on cells
T9 sequence (P43630 22-455 limits assumed): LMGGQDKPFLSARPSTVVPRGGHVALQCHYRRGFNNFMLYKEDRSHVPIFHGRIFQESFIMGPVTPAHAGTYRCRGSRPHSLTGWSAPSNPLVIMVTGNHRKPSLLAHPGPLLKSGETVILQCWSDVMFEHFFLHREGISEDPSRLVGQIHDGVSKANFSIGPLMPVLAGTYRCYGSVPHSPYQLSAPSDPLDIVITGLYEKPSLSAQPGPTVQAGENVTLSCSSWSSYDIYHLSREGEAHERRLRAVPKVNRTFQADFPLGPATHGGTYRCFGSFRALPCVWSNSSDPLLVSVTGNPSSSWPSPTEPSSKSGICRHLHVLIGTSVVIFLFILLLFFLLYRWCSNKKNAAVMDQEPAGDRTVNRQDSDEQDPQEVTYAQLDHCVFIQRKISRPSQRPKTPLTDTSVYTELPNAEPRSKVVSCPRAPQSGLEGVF
Method: as §1
as §1, with “In Table 4, replicate” for “Replicate”, “the” for “a complete”, “panel (as in FIG. 1A, FIG. 2B, and FIG. 2C)” for “panel”

KIR2DS5 = target: T10, KIR2DS5 (UniProt Q14953 22-304, limits assumed); experiment: HEK293 cell microarray
T10 construct: whole, on cells
T10 sequence (Q14953 22-304 limits assumed): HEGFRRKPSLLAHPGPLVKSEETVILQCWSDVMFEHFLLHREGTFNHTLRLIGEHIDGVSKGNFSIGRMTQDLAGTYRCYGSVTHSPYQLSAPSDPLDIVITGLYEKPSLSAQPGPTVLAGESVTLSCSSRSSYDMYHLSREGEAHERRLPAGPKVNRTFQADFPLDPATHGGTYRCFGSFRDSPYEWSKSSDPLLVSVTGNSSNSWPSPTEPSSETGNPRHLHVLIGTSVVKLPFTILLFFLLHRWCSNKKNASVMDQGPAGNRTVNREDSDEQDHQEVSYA
Method: as §1
as §1, with “In Table 4, replicate” for “Replicate”, “the” for “a complete”, “panel (as in FIG. 1A, FIG. 2B, and FIG. 2C)” for “panel”

KIR2DL4 = target: T11, KIR2DL4 (UniProt Q99706 22-377, limits assumed); experiment: HEK293 cell microarray
T11 construct: whole, on cells
T11 sequence (Q99706 22-377 limits assumed): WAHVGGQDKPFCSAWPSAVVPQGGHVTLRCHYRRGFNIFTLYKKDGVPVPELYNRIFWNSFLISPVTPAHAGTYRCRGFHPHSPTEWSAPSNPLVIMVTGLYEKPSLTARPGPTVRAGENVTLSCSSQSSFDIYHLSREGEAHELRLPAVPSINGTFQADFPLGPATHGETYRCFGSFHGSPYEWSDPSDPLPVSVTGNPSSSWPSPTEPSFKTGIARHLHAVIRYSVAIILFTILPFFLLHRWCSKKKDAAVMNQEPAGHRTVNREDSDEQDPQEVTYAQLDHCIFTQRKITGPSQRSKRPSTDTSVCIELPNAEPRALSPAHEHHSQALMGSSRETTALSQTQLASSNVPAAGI
Method: as §1
as §1, with “In Table 4, replicate” for “Replicate”, “the” for “a complete”, “panel (as in FIG. 1A, FIG. 2B, and FIG. 2C)” for “panel”

KIR2DS1 = target: T12, KIR2DS1 (UniProt Q14954 22-304, limits assumed); experiment: HEK293 cell microarray
T12 construct: whole, on cells
T12 sequence (Q14954 22-304 limits assumed): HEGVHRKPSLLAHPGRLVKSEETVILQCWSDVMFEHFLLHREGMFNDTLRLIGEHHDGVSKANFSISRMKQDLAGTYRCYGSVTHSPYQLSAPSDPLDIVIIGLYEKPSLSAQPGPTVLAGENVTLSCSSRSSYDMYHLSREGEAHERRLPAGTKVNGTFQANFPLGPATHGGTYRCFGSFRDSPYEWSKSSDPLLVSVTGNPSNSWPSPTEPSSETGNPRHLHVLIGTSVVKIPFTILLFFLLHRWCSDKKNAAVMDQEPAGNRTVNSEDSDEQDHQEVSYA
Method: as §1
as §1, with “In Table 4, replicate” for “Replicate”, “the” for “a complete”, “panel (as in FIG. 1A, FIG. 2B, and FIG. 2C)” for “panel”

KIR2DS3 = target: T13, KIR2DS3 (UniProt Q14952 22-304, limits assumed); experiment: HEK293 cell microarray
T13 construct: whole, on cells
T13 sequence (Q14952 22-304 limits assumed): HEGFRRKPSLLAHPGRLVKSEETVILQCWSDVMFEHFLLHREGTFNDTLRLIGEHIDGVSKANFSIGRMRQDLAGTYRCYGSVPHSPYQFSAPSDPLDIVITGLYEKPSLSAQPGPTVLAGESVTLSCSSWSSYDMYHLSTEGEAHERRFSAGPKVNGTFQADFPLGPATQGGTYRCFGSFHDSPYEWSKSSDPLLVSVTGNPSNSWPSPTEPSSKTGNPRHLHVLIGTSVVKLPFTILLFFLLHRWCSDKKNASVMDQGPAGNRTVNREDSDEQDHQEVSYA
Method: as §1
as §1, with “In Table 4, replicate” for “Replicate”, “the” for “a complete”, “panel (as in FIG. 1A, FIG. 2B, and FIG. 2C)” for “panel”

Human KIR3DL3 [2] = target: T1, Human KIR3DL3; experiment: cell-based or functional assay
Human KIR3DL3 [3] = target: T1, Human KIR3DL3; experiment: flow cytometry; blockade of HHLA2-mIgG2a binding to KIR3DL3-transfected 300.19 cells
Method: The indicated concentrations of KIR3DL3 mAbs were pre-incubated with KIR3DL3 transfected 300.19 cells for 30 minutes at 4° C. […] EC50 and IC50 analysis were conducted using GraphPad Prism®.

KIR2DL5A = target: T14, KIR2DL5A (UniProt Q8N109 22-375, limits assumed); experiment: HEK293 cell microarray
T14 construct: whole, on cells
T14 sequence (Q8N109 22-375 limits assumed): as the sequence (Q8NHK3 22-375 limits assumed) above, with D152N, S174G counted along it
Method: as §1
as §1, with “In Table 4, replicate” for “Replicate”, “the” for “a complete”, “panel (as in FIG. 1A, FIG. 2B, and FIG. 2C)” for “panel”

T1 sequence (Q8N743 26-410 H321N limits assumed): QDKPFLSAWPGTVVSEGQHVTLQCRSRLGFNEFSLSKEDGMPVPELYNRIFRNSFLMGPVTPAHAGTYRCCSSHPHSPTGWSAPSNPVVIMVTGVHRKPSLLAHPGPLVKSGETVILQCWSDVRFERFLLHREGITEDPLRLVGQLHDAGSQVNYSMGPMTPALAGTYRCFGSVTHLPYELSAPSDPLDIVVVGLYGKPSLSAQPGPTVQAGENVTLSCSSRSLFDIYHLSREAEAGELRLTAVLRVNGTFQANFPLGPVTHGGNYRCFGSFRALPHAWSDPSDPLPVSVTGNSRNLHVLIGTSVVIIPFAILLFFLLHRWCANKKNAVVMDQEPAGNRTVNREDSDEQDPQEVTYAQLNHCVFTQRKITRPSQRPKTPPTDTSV
T2 sequence (P43629 22-444 limits assumed): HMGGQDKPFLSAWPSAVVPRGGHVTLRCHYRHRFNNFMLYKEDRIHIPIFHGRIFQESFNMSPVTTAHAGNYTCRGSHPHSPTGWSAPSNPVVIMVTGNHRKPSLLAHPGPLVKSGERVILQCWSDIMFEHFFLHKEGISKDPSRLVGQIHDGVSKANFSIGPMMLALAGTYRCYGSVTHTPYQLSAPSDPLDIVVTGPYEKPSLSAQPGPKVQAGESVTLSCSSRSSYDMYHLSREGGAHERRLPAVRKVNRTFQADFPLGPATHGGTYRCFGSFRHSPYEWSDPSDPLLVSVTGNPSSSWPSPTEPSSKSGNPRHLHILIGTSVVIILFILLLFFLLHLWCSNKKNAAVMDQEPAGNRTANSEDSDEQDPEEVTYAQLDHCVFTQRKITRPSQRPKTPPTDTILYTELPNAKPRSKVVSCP

| Binder | Kd (Human KIR3DL3 [1]) [µg/mL] | binding result (KIR3DL1) | binding result (KIR3DS1) | binding result (KIR2DL1) | binding result (KIR2DL5B) | binding result (KIR2DS2) | binding result (KIR2DL2) | binding result (KIR2DL3) | binding result (KIR3DL2) | binding result (KIR2DS5) | binding result (KIR2DL4) | binding result (KIR2DS1) | binding result (KIR2DS3) | Jurkat IL-2 Luciferase Activation, EC50 (Human KIR3DL3 [2]) [µg/mL] | Jurkat IL-2 Luciferase, Fold Activation (Human KIR3DL3 [2]) [fold] | IC50 (Human KIR3DL3 [3]) [µg/mL] | binding result (KIR2DL5A) |
| --- | --- | --- | --- | --- | --- | --- | --- | --- | --- | --- | --- | --- | --- | --- | --- | --- | --- |
| KIR3DL3 mAb 574.2.2H1.11.6 (antibody, IgG2b, V domains shown, Mouse hybridoma antibody, IgG2b; only variable domains given; also called AVS-3704) VH: DVQLVESGGGLVQPGGSRKLSCAASGFTFSYFGMHWVRRAPEKGLEWVAFISSDSTTIYYTDTVKGRFTISRDNPKNTLFLQMTSLRSEDTAIYYCARFYDGAMDYWGQGTSVTVST VL: DIVMTQSQKFMSTSVGDRVSITCKASQSVRTAVAWYQQKPGQSPKVLIYLASNRHTGVPDRFTGSGSGTDFTLTISNVQSEDLADYFCLQHWNYPLTFGAGTKLELK | 0.42 | no binding (tested: supernatant 1:5, 1:25, 1:250) | no binding (tested: supernatant 1:5, 1:25, 1:250) | no binding (tested: supernatant 1:5, 1:25, 1:250) | no binding (tested: supernatant 1:5, 1:25, 1:250) | no binding (tested: supernatant 1:5, 1:25, 1:250) | no binding (tested: supernatant 1:5, 1:25, 1:250) | no binding (tested: supernatant 1:5, 1:25, 1:250) | no binding (tested: supernatant 1:5, 1:25, 1:250) | no binding (tested: supernatant 1:5, 1:25, 1:250) | no binding (tested: supernatant 1:5, 1:25, 1:250) | no binding (tested: supernatant 1:5, 1:25, 1:250) | no binding (tested: supernatant 1:5, 1:25, 1:250) | 1.79 | 16.2 | 0.19 |  |
| KIR3DL3 mAb 574.2.1C7.D2.6.5 (antibody, IgG1, V domains shown, Mouse hybridoma antibody, IgG1; only variable domains given; also called AVS-3698) VH: QVQLQQSGAELMKPGASVKISCKATGYTFSNYWIEWIKQRPGHGLEWIGEILPGSGSTNYNEKFKGKATFTAATSSNTAYMQLSSLTSEDSAVYYCARRVPDYYGSRYYFDYWGQGTTLTVSS VL: NIVMTQSPKSMSMSVGERVTLSCKASENVGIYVSWYQQKPEQSPKLLIYGASNRYTGVPDRFTGSGSATDFTLTISSVQAEDLADYHCGQSYNYPFTFGSGTKLEIK | 0.77 | no binding (tested: supernatant 1:5, 1:25, 1:250) | no binding (tested: supernatant 1:5, 1:25, 1:250) | no binding (tested: supernatant 1:5, 1:25, 1:250) | no binding (tested: supernatant 1:5, 1:25, 1:250) | no binding (tested: supernatant 1:5, 1:25, 1:250) | no binding (tested: supernatant 1:5, 1:25, 1:250) | no binding (tested: supernatant 1:5, 1:25, 1:250) | no binding (tested: supernatant 1:5, 1:25, 1:250) | no binding (tested: supernatant 1:5, 1:25, 1:250) | no binding (tested: supernatant 1:5, 1:25, 1:250) | no binding (tested: supernatant 1:5, 1:25, 1:250) | no binding (tested: supernatant 1:5, 1:25, 1:250) | 77 | 8.2 | 0.32 | no binding (tested: supernatant 1:5, 1:25, 1:250) |
